From paper PMC4014126 (2014)

B1: Myc-tagged mouse IL-17RA [mouse] / NF-κB activator 1 (Act1) [mouse (endogenous in MEFs)] (parent complex)
chain 1: SPRLLDFPAPVCAQEGLSCRVKNSTCLDDSWIHPKNLTPSSPKNIYINLSVSSTQHGELVPVLHVEWTLQTDASILYLEGAELSVLQLNTNERLCVKFQFLSMLQHHRKRWRFSFSHFVVDPGQEYEVTVHHLPKPIPDGDPNHKSKIIFVPDCEDSKMKMTTSCVSSGSLWDPNITVETLDTQHLRVDFTLWNESTPYQVLLESFSDSENHSCFDVVKQIFAPRQEEFHQRANVTFTLSKFHWCCHHHVQVQPFFSSCLNDCLRHAVTVPCPVISNTTVPKPVADYIPLWVYGLITLIAILLVGSVIVLIICMTWRLSGADQEKHGDDSKINGILPVADLTPPPLRPRKVWIVYSADHPLYVEVVLKFAQFLITACGTEVALDLLEEQVISEVGVMTWVSRQKQEMVESNSKIIILCSRGTQAKWKAILGWAEPAVQLRCDHWKPAGDLFTAAMNMILPDFKRPACFGTYVVCYFSGICSERDVPDLFNITSRYPLMDRFEEVYFRIQDLEMFEPGRMHHVRELTGDNYLQSPSGRQLKEAVLRFQEWQTQCPDWFERENLCLADGQDLPSLDEEVFEDPLLPPGGGIVKQQPLVRELPSDGCLVVDVCVSEEESRMAKLDPQLWPQRELVAHTLQSMVLPAEQVPAAHVVEPLHLPDGSGAAAQLPMTEDSEACPLLGVQRNSILCLPVDSDDLPLCSTPMMSPDHLQGDAREQLESLMLSVLQQSLSGQPLESWPRPEVVLEGCTPSEEEQRQSVQSDQGYISRSSPQPPEWLTEEEELELGEPVESLSPEELRSLRKLQRQLFFWELEKNPGWNSLEPRRPTPEEQNPS
chain 2: MNRSIPVEVDESEPFPSQLLKPIPEYSPEEELEPPAPNTRNMAPSSLSVLQCPPLKLANHQPVSQQVTCLRAKVLEEGEASFFRRHPELGKDISSCSSGASEPESELGALPPEHRFTLTEKRNRWLGSQLSAASPDTGHESDKSDPSLPNALADSFSGGQEMMPRPRPRPGPHRHRAAPDVPTIDTGYDSQPQDVLGIRQLERPLPLTSSCYLQDLPGPLRSRELPPQFELERYPMNAQLLPPHPSPQAPWNCQYYCPGGPYHHQVPHGHGYPPAAAYQQVLQPALPGQVLPGARARGPRPVQKVILNDSSPQDQEERPAQRDFSFPRLPRDQLYRPPSNGVEAPEESLDLPAELRPHGPQAPSLAAVPRPPSNPLARGTLRTSNLPEELRKVFITYSMDTAMEVVKFVNFLLVNGFQTAIDIFEDRIRGIDIIKWMERYLRDKTVMIIVAISPKYKQDVEGAESQLDEDEHGLHTKYIHRMMQIEFISQGSMNFRFIPVLFPNAKKEHVPTWLQNTHVYSWPKNKKNILLRLLREEEYVAPPRGPLPTLQVVPL

Variants of: B1
Experiment: co-immunoprecipitation (anti-Myc IP, Western blot, ImageJ densitometry); IL-17RA-deficient MEFs reconstituted by retroviral infection; treated with IL-17 for 10 min; parent: 100
chain 1 R420A, chain 1 Q423A, chain 1 K427A was tested, and the percent of parent was 107. For chain 1 E388A, chain 1 Q389A, chain 1 E393A, the percent of parent was 107. For chain 1 V396A, chain 1 M397A, the percent of parent was 98. chain 1 I429A, chain 1 L430A showed a percent of parent of 102.
